Results as given in PMC7870846, “Incorporation of sensing modalities into de novo designed fluorescence-activating proteins” (Nature Communications, 2021).
No end group written: not given here.

Legend:
Assay in all cases: other fluorescence titration; MBP-tagged fragment titrated into its complementary MBP-tagged fragment; 25.0 uM DFHBI-1T; high-salt Tev cleavage buffer (25.0 mM Tris, 100 mM NaCl, pH 8.00); ex 468 nm, em 530 nm; estimated Kd, signal did not plateau
Conditions in all cases: both partners purified
[1] = target: T1, MBP-tagged split mFAP fragment m16
T1 chain: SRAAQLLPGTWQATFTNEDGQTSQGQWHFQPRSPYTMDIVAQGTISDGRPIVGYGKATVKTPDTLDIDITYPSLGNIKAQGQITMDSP

[2] = target: T2, MBP-tagged split mFAP fragment m14
T2 chain: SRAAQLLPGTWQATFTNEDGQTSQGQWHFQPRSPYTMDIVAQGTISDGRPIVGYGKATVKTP

[3] = target: T3, MBP-tagged split mFAP fragment m17
T3 chain: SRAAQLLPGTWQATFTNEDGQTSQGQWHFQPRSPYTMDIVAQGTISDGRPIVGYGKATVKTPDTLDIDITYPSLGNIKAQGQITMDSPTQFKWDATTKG

B1: MBP-tagged split mFAP fragment m78 (domain or fragment)
chain: TQFKWDATTKGENDFHGRLTGTLQRQE
modifications: not fully specified
Kd [1]: ≥ 232 µM

B2: MBP-tagged split mFAP fragment m58 (domain or fragment)
chain: DTLDIDITYPSLGNIKAQGQITMDSPTQFKWDATTKGENDFHGRLTGTLQRQE
modifications: not fully specified
Kd [2]: ≥ 22 µM

B3: MBP-tagged split mFAP fragment m8 (domain or fragment)
chain: ENDFHGRLTGTLQRQE
modifications: not fully specified
Kd [3]: ≥ 354 µM
